The record followed here is US20060018918A1.

Experiment in all cases: ELISA on plates coated with the antigen; control serum
In general terms: In an ELISA, binding on a coated surface is turned into a signal by an enzyme label.

The target of experiment [1] is α-lactalbumin stabilized denatured isomer "d".
The target in experiment [2] is α-lactalbumin stabilized denatured isomer "c".
The next experiment has as its target native α-lactalbumin.
The target in experiment [3] is α-lactalbumin stabilized denatured isomer "a".

Consider “normal mouse serum (control) (polyclonal serum or antibody)”, for which the O.D. in experiment [1] amounted to 0.05 O.D; in experiment [2] it was 0.056 O.D; in the experiment with native α-lactalbumin, 0.06 O.D; in experiment [3], 0.06 O.D.
